Experiments:
TLR2 [1] = assay: NF-κB luciferase reporter assay in TLR2-HeLa cells; format: cell-based, human; conditions: TLR2-HeLa cells, p<0.01
Procedure: (§1) To determine whether TLR2 is a receptor for SAA, a TLR2-expressing cell line was prepared in HeLa cells, which contain very little endogenous TLR2 transcript (FIG. 6A, upper panel). […] TLR2 is a class I transmembrane protein that contains an extracellular ligand binding domain (ectodomain), a transmembrane domain and a cytoplasmic domain consisting of the Toll/IL-1/receptor/Resistance (TIR) motif. Studies have shown that TLR2 forms heterodimers with TLR1 and TLR6 (Ozinsky et al., 2000), which display different preference for TLR2 ligands (Hoebe et al., 2005; Takeuchi et al., 2002). The C-terminal TIR domain is conserved among TLRs and responsible for TLR signaling (O'Neill and Bowie, 2007; Takeda and Akira, 2004). To assess the relative contributions of TLRs to SAA signaling, TLR1, TLR2, TLR4 and TLR6 were overexpressed in the TLR2-HeLa cells, and their effects on SAA-induced NF-κB luciferase reporter activity were determined. […] In addition, the TIR domain deletion mutants (ΔTIR) of these receptors were expressed, which are negative regulators of TLR signaling.
(§2) Methods for the generation of TLR2-HeLa stable cell line: HeLa cells stably transfected with human TLR2 gene were generated by transfecting HeLa cells with the expression construct pUNO-hTLR2 (InvivoGen, San Diego, Calif.; GenBank accession number for human TLR2 cDNA is NM_003264) and selected with Blasticidin at concentration of 20 μg/ml for 2 weeks. The control HeLa cells were generated at the same time by transfecting with empty pUNO vector. Cells were maintained in DMEM supplemented with 10% heat-inactivated FB S, 2 mM L-glutamine, 100 IU/ml penicillin, and 50 μg/ml streptomycin. Expression of TLR2 was confirmed using an anti-TLR2 antibody (eBioscience) and FTTC-conjugated anti-mouse antibody, on a FACSCalibur flow cytometer (Becton Dickinson). The TLR2-HeLa and control cells were then co-transfected with 5xNF-κB reporter plasmids (pNF-κB-Luc, Stratagene, Cedar Creek, Tex., catalog no. 219077) and empty SFFV vector bearing a neomycin resistant gene. The TLR2-HeLa/NF-κB reporting cells were obtained after selecting with G418 at concentration of […] for 2-3 weeks. Cells (5′10^5/ml) were grown in DMEM supplemented with 10% heat-inactivated FBS, 2 mM L-glutamine, 100 IU/ml penicillin, and […] streptomycin.
(§3) Methods for using HeLa cells in reporter assay: Mock-transfected HeLa and TLR2-HeLa cells were maintained at ˜5×10^5 cells/well in six-well plates, transfected with plasmid expression vectors coding for a 3×κB-directed luciferase reporter, pCMVβ vector DNA (Promega) and/or other expression constructs as indicated. Total DNA concentration was adjusted to 1 μg/sample by addition of empty vector DNA. Transient transfection was performed using LipofectAmine Plus reagent (Invitrogen). […]

TLR2 [2] = target: T1, TLR2 (Homo sapiens, UniProt O60603); assay: NF-κB luciferase reporter assay in TLR2-HeLa cells; format: cell-based
T1 construct: host or cells: HeLa
Procedure: as §1, §2, §3

TLR2:Fc fusion protein = target: T2, TLR2:Fc fusion protein (Homo sapiens, UniProt O60603); assay: SAA-TLR2 interaction, ELISA-like binding assay; conditions: 0.0625 to 8 μg/ml ligand coated, 2 μg/ml TLR2:Fc
T2 construct: measured in an ELISA-like assay using a TLR2 extracellular domain:Fc fragment fusion protein; made in house; host or cells: CHO cells (pFuse-Fc vector, InvivoGen), purified from culture supernatant on protein A
Description: Another example of a method for screening antagonists that disrupt the SAA/TLR2 interaction involves a binding assay that includes a TLR2 ectodomain (extracellular domain) fused to an Fc fragment of immunoglobulin (TLR2:Fc), such as the assay used in FIG. 9B. This assay is typically used as a follow-up or secondary assay to that assay described above. In other words, any compounds collected from the assay described above are subjected to the TLR2:Fc-based binding assay to confirm that the antagonistic effect is on the disruption of SAA-TLR2 binding. This method is generally carried out as follows and is also described in the Examples. A TLR2:Fc fusion protein is generated such that the N-terminal 588 amino acids of human TLR2 are fused in frame to the Fc portion of mouse IgG2a. The cDNA encoding for the resulting chimeric protein is cloned in pFuse-Fc vector (InvivoGen), and stably transfected into CHO cells. […] Absorbance at 450 nm is measured on a SpectraMax 340 plate reader (Molecular Devices).
Assays for SAA-TLR2 interaction: The TL2:Fc fusion protein was generated such that the N-terminal 588 amino acids of human TLR2 protein were fused in frame with the Fc portion of mouse IgG2a. […] Absorbance at 450 nm was measured on a SpectraMax 340 plate reader (Molecular Devices). […]

T1 sequence (O60603 21-784): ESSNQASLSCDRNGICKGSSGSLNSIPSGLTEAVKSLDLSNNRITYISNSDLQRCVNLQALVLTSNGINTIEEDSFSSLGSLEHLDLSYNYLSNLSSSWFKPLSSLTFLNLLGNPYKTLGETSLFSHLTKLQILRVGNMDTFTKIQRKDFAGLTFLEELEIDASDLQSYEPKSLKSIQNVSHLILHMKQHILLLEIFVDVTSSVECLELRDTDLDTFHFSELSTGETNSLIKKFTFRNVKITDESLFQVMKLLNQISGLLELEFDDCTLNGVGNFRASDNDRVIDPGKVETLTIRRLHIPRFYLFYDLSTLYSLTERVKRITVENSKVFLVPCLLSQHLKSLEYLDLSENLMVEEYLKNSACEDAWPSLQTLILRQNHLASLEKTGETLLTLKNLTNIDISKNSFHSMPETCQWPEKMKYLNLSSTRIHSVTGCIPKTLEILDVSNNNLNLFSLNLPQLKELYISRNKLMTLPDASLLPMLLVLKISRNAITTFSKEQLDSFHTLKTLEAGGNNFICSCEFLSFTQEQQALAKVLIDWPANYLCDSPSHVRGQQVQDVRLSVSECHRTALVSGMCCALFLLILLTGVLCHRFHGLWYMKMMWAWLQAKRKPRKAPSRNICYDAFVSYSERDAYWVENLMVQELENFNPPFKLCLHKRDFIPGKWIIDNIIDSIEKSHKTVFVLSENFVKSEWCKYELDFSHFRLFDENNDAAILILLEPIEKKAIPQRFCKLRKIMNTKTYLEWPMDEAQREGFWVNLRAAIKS
T1 sequence (Q15399 25-786 partner): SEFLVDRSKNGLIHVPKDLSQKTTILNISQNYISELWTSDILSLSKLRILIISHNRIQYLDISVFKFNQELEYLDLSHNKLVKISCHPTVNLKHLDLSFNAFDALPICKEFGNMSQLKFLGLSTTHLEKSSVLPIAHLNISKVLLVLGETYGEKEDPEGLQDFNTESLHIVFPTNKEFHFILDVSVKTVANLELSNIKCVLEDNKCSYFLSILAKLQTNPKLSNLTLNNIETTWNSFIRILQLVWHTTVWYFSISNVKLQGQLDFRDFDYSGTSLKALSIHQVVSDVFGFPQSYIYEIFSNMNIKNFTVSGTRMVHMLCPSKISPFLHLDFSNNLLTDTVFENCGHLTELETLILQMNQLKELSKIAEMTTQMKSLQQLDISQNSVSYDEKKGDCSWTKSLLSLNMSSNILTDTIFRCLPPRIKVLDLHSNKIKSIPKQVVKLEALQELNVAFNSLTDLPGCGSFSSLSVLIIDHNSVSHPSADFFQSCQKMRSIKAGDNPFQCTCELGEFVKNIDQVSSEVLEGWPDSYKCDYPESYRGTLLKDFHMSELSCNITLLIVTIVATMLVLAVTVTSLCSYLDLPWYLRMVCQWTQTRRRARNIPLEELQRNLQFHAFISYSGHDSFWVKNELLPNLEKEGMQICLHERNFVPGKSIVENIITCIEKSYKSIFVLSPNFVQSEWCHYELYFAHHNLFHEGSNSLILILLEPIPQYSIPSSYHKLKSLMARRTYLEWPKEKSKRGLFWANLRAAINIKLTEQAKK
T2 sequence (O60603 21-588 limits assumed): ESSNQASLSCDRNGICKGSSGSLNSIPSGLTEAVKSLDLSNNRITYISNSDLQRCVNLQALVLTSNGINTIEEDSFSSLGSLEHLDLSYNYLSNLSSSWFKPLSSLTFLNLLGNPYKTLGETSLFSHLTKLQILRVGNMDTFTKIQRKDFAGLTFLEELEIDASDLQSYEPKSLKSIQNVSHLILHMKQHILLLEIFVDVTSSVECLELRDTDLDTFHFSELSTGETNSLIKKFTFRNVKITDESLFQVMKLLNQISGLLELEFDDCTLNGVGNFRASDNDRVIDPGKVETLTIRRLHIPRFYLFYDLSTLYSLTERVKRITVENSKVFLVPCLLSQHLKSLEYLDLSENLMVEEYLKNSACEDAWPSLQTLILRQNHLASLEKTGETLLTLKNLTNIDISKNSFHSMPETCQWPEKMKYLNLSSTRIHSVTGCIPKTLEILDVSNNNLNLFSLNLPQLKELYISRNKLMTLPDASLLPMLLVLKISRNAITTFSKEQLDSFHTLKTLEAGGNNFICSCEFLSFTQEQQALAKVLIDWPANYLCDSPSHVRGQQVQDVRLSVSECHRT

binding to TLR2:Fc fusion protein (TLR2:Fc fusion protein): dose-dependent increase in SAA binding
B1: SAA: Recombinant human SAA purchased from PeproTech; major acute-phase protein of 104 amino acids (protein, UniProt P0DJI8 19-122, looked up)
Serum amyloid A-1 protein: RSFFSFLGEAFDGARDMWRAYSDMREANYIGSDKYFHARGNYDAAKRGPGGAWAAEVITDARENIQRFFGHGAEDSLADQAANEWGRSGKDPNHFRPAGLPEKY
SAA-induced NF-κB luciferase activity with ΔTIR mutants of TLR1, TLR2 and TLR6 (TLR2 [1]): significant inhibition
NF-κB luciferase activity (TLR2 [2]; SAA-stimulated TLR2-HeLa vs mock-transfected HeLa cells, p<0.01): significantly increased NF-κB luciferase activity
SAA-induced NF-κB luciferase activity with exogenous expression of TLR1 (TLR2 [2]; TLR2-HeLa cells overexpressing TLR1): potentiated SAA-induced NF-κB luciferase activity

From patent US7629135B2, “Toll-like receptor agonists and antagonists and methods of use thereof” (The Board of Trustees of the University of Illinois, priority 2006, dated 2009)
